The ΔTm is the shift of the melting midpoint relative to a reference. The Kd is a measure of binding affinity in units of concentration. In general, stoichiometry N refers to the number of molecules, sites or subunits per partner or assembly.

The target in assay [1] is KRas G12D (GDP-loaded) (UniProt P01116). As to the kind of experiment: thermal shift assay.
Assay [2] has the same target. As to the kind of experiment: ITC.
A further assay deals with KRas wild-type (UniProt P01116). As to the kind of experiment: ITC. For orientation: Isothermal titration calorimetry measures the heat released or taken up as one component is titrated into another.
For assay [3], the target named is KRas G12D, site-specifically mono-biotinylated by sortase-mediated ligation (GDP-loaded) (UniProt P01116). Description: SPR. Background: In SPR one partner is held on a chip, and binding of the other changes the refractive index at the surface.

Regarding KRpep-2d (peptide), in the assay with KRas G12D (GDP-loaded) [1], the ΔTm was 11.5 °C. In the assay with KRas G12D (GDP-loaded) [2], the Kd worked out at 21 nM and the stoichiometry N amounted to 0.625.

In the assay with KRas wild-type, “Raf-RBD (from UniProt P04049 56-131) (domain or fragment)” returned a Kd of 6 nM and a stoichiometry N of 0.554.

Take “SAH-SOS1A (from UniProt Q07889 929-944) (peptide)”: the Kd in assay [3] is over 1000 nM.

In turn, cyclorasin 9A5 (peptide) returned a Kd in assay [3] of over 1000 nM.

Values taken from article doi:10.1101/636563.
